Results published in patent US6897054.

Target: huCdc7 fused to DNA-binding domain of Gal4 (human)
Test: yeast two-hybrid assay, lacZ activity

interaction relative to the full-length clone: 10%
Substance: H37 deletion derivative ΔP2 fused to Gal4 activation domain (from UniProt Q9UBU7 1-431)
